Laboratory results: the supplement of paper PMC9112550, “Optimization of the antimicrobial peptide Bac7 by deep mutational scanning” (BMC Biology, 2022)

The sequences below were run on Escherichia coli TOP10 (assay: shrunken log2 fold change of peptide-encoding DNA abundance (4.5 h post-induction vs induction); higher = less antimicrobial activity (less host growth inhibition)). Conditions: time post-induction: 4.5 h; library: site-saturation at positions 5, 18, 19, 20.
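Further: peptides expressed intracellularly from a pBAD plasmid library in pooled LB shake-flask culture, induced with 0.3% L-arabinose, DNA abundance read by NGS, three biological replicates, DESeq2 with apeglm shrinkage.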

Sequence | shrunken log2 fold change
RRIRVRPPRLPRPRPRPCHCPRP | -0.373
RRIRLRPPRLPRPRPRPHNLPRP | -0.11
RRIRVRPPRLPRPRPRPDHKPRP | -0.0198
RRIRERPPRLPRPRPRPMNMPRP | -0.176
RRIRYRPPRLPRPRPRPPSYPRP | -0.156
RRIRSRPPRLPRPRPRPTRYPRP | -0.198
RRIRPRPPRLPRPRPRPECRPRP | 0.56
RRIRPRPPRLPRPRPRPPMGPRP | 0.325
RRIRGRPPRLPRPRPRPRYRPRP | 0.0699
RRIRTRPPRLPRPRPRPPRCPRP | 0.391
RRIRCRPPRLPRPRPRPCWPPRP | -0.0967
RRIRMRPPRLPRPRPRPPAWPRP | 1.22
RRIRWRPPRLPRPRPRPSDWPRP | 0.12
RRIRFRPPRLPRPRPRPKKTPRP | 0.0466
RRIRLRPPRLPRPRPRPTNDPRP | -0.288
RRIRTRPPRLPRPRPRPGISPRP | 0.0832
RRIRPRPPRLPRPRPRPLYGPRP | 0.0853
RRIRLRPPRLPRPRPRPELFPRP | 0.303
RRIRTRPPRLPRPRPRPSSMPRP | -0.239
RRIRVRPPRLPRPRPRPPEGPRP | 0.582
RRIRSRPPRLPRPRPRPCSKPRP | -0.234
RRIRQRPPRLPRPRPRPNFWPRP | -0.00668
RRIRLRPPRLPRPRPRPKLFPRP | 0.306
RRIRIRPPRLPRPRPRPSACPRP | -0.561
RRIRRRPPRLPRPRPRPRIFPRP | 0.0808

Sequence | shrunken log2 fold change
RRIRFRPPRLPRPRPRPARPPRP | 0.287
RRIRFRPPRLPRPRPRPYYWPRP | -0.485
RRIRSRPPRLPRPRPRPFVRPRP | 0.0631
RRIRNRPPRLPRPRPRPIWTPRP | -0.115
RRIRLRPPRLPRPRPRPGGWPRP | 0.71
RRIRRRPPRLPRPRPRPDAGPRP | 0.307
RRIRSRPPRLPRPRPRPAPCPRP | 0.308
RRIRTRPPRLPRPRPRPRHLPRP | 0.318
RRIRIRPPRLPRPRPRPMDAPRP | 0.0153
RRIRPRPPRLPRPRPRPKCDPRP | -0.314
RRIRCRPPRLPRPRPRPHAHPRP | -0.182
RRIRMRPPRLPRPRPRPQNFPRP | 0.0982
RRIRCRPPRLPRPRPRPMREPRP | 0.907
RRIRVRPPRLPRPRPRPPHEPRP | 0.42
RRIRHRPPRLPRPRPRPSCHPRP | -0.509
RRIRNRPPRLPRPRPRPDHKPRP | -0.398
RRIRMRPPRLPRPRPRPKTVPRP | 0.847
RRIRIRPPRLPRPRPRPLFAPRP | -0.0892
RRIRNRPPRLPRPRPRPERFPRP | 0.128
RRIRMRPPRLPRPRPRPRERPRP | 0.623
RRIRYRPPRLPRPRPRPLDWPRP | 0.171
RRIRWRPPRLPRPRPRPVTNPRP | 0.266
RRIRQRPPRLPRPRPRPNWYPRP | -0.0479
RRIRSRPPRLPRPRPRPVGMPRP | 0.12
RRIRHRPPRLPRPRPRPATWPRP | 0.222

Sequence | shrunken log2 fold change
RRIRWRPPRLPRPRPRPHKCPRP | 0.188
RRIRFRPPRLPRPRPRPVFYPRP | -0.536
RRIRARPPRLPRPRPRPLWTPRP | 0.115
RRIRMRPPRLPRPRPRPGNLPRP | 0.0466
RRIRSRPPRLPRPRPRPMETPRP | 0.585
RRIRGRPPRLPRPRPRPVGAPRP | 1.13
RRIRQRPPRLPRPRPRPPNYPRP | 0.195
RRIRTRPPRLPRPRPRPDKDPRP | -0.0511
RRIRVRPPRLPRPRPRPFQEPRP | 0.00442
RRIRKRPPRLPRPRPRPVQCPRP | 0.0223
RRIRGRPPRLPRPRPRPIRNPRP | -0.0262
RRIRWRPPRLPRPRPRPKHMPRP | -0.063
RRIRNRPPRLPRPRPRPINVPRP | -0.0327
RRIRIRPPRLPRPRPRPADPPRP | -0.071
RRIRQRPPRLPRPRPRPGDNPRP | -0.203
RRIRRRPPRLPRPRPRPWYQPRP | -3.03
RRIRCRPPRLPRPRPRPLTGPRP | -0.994
RRIRVRPPRLPRPRPRPEPDPRP | 0.242
RRIRCRPPRLPRPRPRPGCCPRP | 0.137
RRIRDRPPRLPRPRPRPWAAPRP | 0.00948
RRIRYRPPRLPRPRPRPTDYPRP | -0.746
RRIRERPPRLPRPRPRPHCLPRP | -0.138
RRIRSRPPRLPRPRPRPYMIPRP | -1.11
RRIRIRPPRLPRPRPRPCHDPRP | -0.223
RRIRCRPPRLPRPRPRPDHMPRP | -0.0636

Sequence | shrunken log2 fold change
RRIRHRPPRLPRPRPRPCTEPRP | -0.138
RRIRHRPPRLPRPRPRPWYLPRP | -0.748
RRIRTRPPRLPRPRPRPFWKPRP | 0.0184
RRIRVRPPRLPRPRPRPNFAPRP | 0.104
RRIRYRPPRLPRPRPRPYQSPRP | 0.0169
RRIRYRPPRLPRPRPRPDRKPRP | -0.157
RRIRDRPPRLPRPRPRPNYIPRP | -1.03
RRIRFRPPRLPRPRPRPCHSPRP | -0.0231
RRIRGRPPRLPRPRPRPEQPPRP | 1.68
RRIRLRPPRLPRPRPRPHKFPRP | -0.138
RRIRHRPPRLPRPRPRPAWKPRP | -0.0109
RRIRFRPPRLPRPRPRPIHSPRP | -0.895
RRIRVRPPRLPRPRPRPHIPPRP | -0.602
RRIRMRPPRLPRPRPRPEEAPRP | 3.94
RRIRERPPRLPRPRPRPSLDPRP | -0.35
RRIRLRPPRLPRPRPRPRPGPRP | 0.687
RRIRSRPPRLPRPRPRPANWPRP | 0.343
RRIRDRPPRLPRPRPRPRNYPRP | -0.313
RRIRARPPRLPRPRPRPFGAPRP | 0.929
RRIRLRPPRLPRPRPRPCFEPRP | -0.0179
RRIRWRPPRLPRPRPRPRVWPRP | 0.646
RRIRWRPPRLPRPRPRPIEHPRP | -0.133
RRIRERPPRLPRPRPRPQDNPRP | -0.0327
RRIRERPPRLPRPRPRPMCIPRP | -0.133
RRIRVRPPRLPRPRPRPACEPRP | 0.165

Sequence | shrunken log2 fold change
RRIRNRPPRLPRPRPRPYWSPRP | -0.195
RRIRRRPPRLPRPRPRPARGPRP | 0.731
RRIRPRPPRLPRPRPRPDCTPRP | -0.167
RRIRSRPPRLPRPRPRPRDDPRP | 0.0905
RRIRVRPPRLPRPRPRPNETPRP | -0.033
RRIRRRPPRLPRPRPRPGAHPRP | 0.45
RRIRYRPPRLPRPRPRPGDTPRP | -0.276
RRIRRRPPRLPRPRPRPTMFPRP | 0.0275
RRIRSRPPRLPRPRPRPPWAPRP | 0.643
RRIRKRPPRLPRPRPRPEGYPRP | 0.0317
RRIRDRPPRLPRPRPRPRAVPRP | 0.764
RRIRSRPPRLPRPRPRPISDPRP | 0.103
RRIRWRPPRLPRPRPRPNTTPRP | -0.418
RRIRFRPPRLPRPRPRPYPFPRP | -0.69
RRIRRRPPRLPRPRPRPPAHPRP | 0.728
RRIRHRPPRLPRPRPRPPAWPRP | 0.0414
RRIRHRPPRLPRPRPRPDEAPRP | -0.0728
RRIRCRPPRLPRPRPRPMAVPRP | 0.0112
RRIRDRPPRLPRPRPRPADGPRP | -0.00193
RRIRVRPPRLPRPRPRPQIWPRP | -0.192
RRIRFRPPRLPRPRPRPHAGPRP | -0.024
RRIRPRPPRLPRPRPRPQSFPRP | 0.0475
RRIRLRPPRLPRPRPRPQIGPRP | 0.0441
RRIRCRPPRLPRPRPRPEYDPRP | -0.173
RRIRDRPPRLPRPRPRPWKMPRP | 0.0664

Sequence | shrunken log2 fold change
RRIRARPPRLPRPRPRPSQAPRP | 0.0359
RRIRGRPPRLPRPRPRPIKGPRP | -0.0627
RRIRKRPPRLPRPRPRPTETPRP | 0.114
RRIRGRPPRLPRPRPRPRWAPRP | 0.702
RRIRFRPPRLPRPRPRPTCLPRP | -0.249
RRIRCRPPRLPRPRPRPALKPRP | 0.0946
RRIRERPPRLPRPRPRPPTCPRP | -0.0707
RRIRGRPPRLPRPRPRPSSQPRP | 0.099
RRIRQRPPRLPRPRPRPMGKPRP | -0.167
RRIRNRPPRLPRPRPRPTVCPRP | -0.0905
RRIRHRPPRLPRPRPRPYVMPRP | 0.0288
RRIRQRPPRLPRPRPRPMRPPRP | 0.968
RRIRVRPPRLPRPRPRPCDQPRP | -0.0149
RRIRERPPRLPRPRPRPDWRPRP | -0.0634
RRIRARPPRLPRPRPRPMCFPRP | 0.18
RRIRWRPPRLPRPRPRPFMGPRP | 0.0373
RRIRGRPPRLPRPRPRPKEKPRP | 0.0377
RRIRARPPRLPRPRPRPIGCPRP | 0.445
RRIRVRPPRLPRPRPRPMYIPRP | -0.0844
RRIRMRPPRLPRPRPRPEFMPRP | 0.656
RRIRGRPPRLPRPRPRPKTPPRP | 1.73
RRIRNRPPRLPRPRPRPLWWPRP | 0.605
RRIRYRPPRLPRPRPRPCFTPRP | -0.941
RRIRLRPPRLPRPRPRPYRDPRP | 0.0076
RRIRVRPPRLPRPRPRPCKDPRP | -0.0644
